Measured values as given in the nanobody polyreactivity screen of Harvey et al. (2022).

Experiment: yeast display, Sf9 membrane polyspecificity reagent, FACS + sequencing; frameworks hold sequencing errors
Summary of the method: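 Galactose induction of a Saccharomyces cerevisiae BJ5465 synthetic nanobody display library ran 36–48 hours. The cells were then stained for 1 hour at 4 °C with 10% biotinylated, detergent-solubilized Sf9 membrane reagent, pulled down on streptavidin microbeads and FACS-sorted into low and high (top ~1%) gates on expression and reagent-binding fluorescence. Labels for polyreactivity follow the gate of origin.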

| Sequence | polyreactivity (PSR sort gate) |
| --- | --- |
| QVQLVESGGGLVQAGGSLRLSCAASGRIIARNAMGWYRQAPGKEREFVAAITARGARTYYADSVKGRFTISRDNAKNTVYLQMNSLKPEDTAVYYCAVVQGNVYYTGDDYWGQGTQVTVSS | high polyreactivity |
| QVQLVESGGGLVQAGGSLRLSCAASGLIFEEYAMGWYRQAPGKERELVAGIDSSGSTNYADSVKGRFTISRDNAKNTVYLQMNSLKPEDTAVYYCTARGYYPRWYYVFRGNYWGQGTQVTVSS | low polyreactivity |
| QVQLEESGGGLVQAGGSLRLSCAASGSIFVRNAMGWYRQAPGKERELVAAISRSGSSTYYADSVKGRFTISRDNAKNTVYLQMNSLKPEDTAVYYCAKRRPALRWIYYYWGQGTQVTVSS | high polyreactivity |
| QVQLVESGGGLVQAGGSLRLSCAASGSIFSQYAMGWYRQAPGKERELVDAITYGGGSTYYADSVKGRFTISRDNAKNTVYLQMNSLKPEDTAVYYCNADGWNTYIGPRRYRYDYWGQGTQVTVSS | low polyreactivity |
| QVQLQESGGGLVQAGGSLRLSCAASGSIFVSVTMGWYRQAPGKERELVASIGRGSTTNHADSVKGRFTISRDNAKNIVYLLMNSLKPEDTAVYSCAALESYGKYHGYWGQGTQVTVSS | low polyreactivity |
| QVQLVESGGGLVQAGGSLRLSCAASGYTFNWYAMGWYRQAPGKERELVAAISWRSGRTYYADSVKGRFTISRDNAKNTVYLQMNSLKPEDTAVYYCAVTTTSGAPGGSYYYWGQGTQVTVSS | high polyreactivity |
| QFQLVESGGGLVQAGGSLRLSCAASGIILRGYAMGWYRQAPGKERELVASISRGGSTNYADSVKGRFTISRDNAKNTVYLQMNSLKPEDTAVYYSNARIWYYGRYQGAYRFDYWGQGTQVTVSS | high polyreactivity |
| QVQLVESGGGLVQAGGSLRLSCAASGFTFDWYAMGWYRPAPGKERELVAAISSGGNTKYADSVKGRFTISRDNAKNTVYLQMNSLKPEDTAVYYCAARLYYSLSYYYWGQGTQVTVAS | high polyreactivity |
| QVQLVESGGGLLQAGGSLRLSCAASGSIFGGNAMGWYRQAPGKEREFVAAITVSDGSTYYADSVKGRFTISRDNAKNTVYLQMNSLKPEDTAVYYCAAGGFYYPHYDYWGQGSQVTVSS | low polyreactivity |
| QVQLVESGGGLVQAGGSLRLSCAASGFILPHNAMGWYRQAPGKERELVAAISGSGGSTYYADSVKGRFTISRDNAKNTVYLQMNSLKPEDTAFYYCNADVWVYPYDYWGQGTQVTVSS | low polyreactivity |
| QVQLVESGGGLVQAGGSLRLSCAPSRSTFWRYAMGWYRQAPGKERELFARISWSAGSTYYADSVKGRFTISRDNAKNTVYLQMNRLKPEDSAVYYCAAQPYKYSGRYQSKPYLLLYDYWGQGTQVTVSS | high polyreactivity |
| QVQLVESGGGLVQAGGSLRLSCAASGSIIYLYTMGWYRQAPGKERELVAAISSSGSSTYYADSVKGRFTISRDNAKNTVYLQMNSLKPEYTSVYYCAARYSYDSYYWGKGTQVTVSS | high polyreactivity |
| QVQLVESGGGLVQAGGSLRLSCAASGIIFRTNAMGWYRKAPGKEREFVAAISAGGTRTYYADSVKGRFTISRDNAKNTVYLQMNSLKPEDTAVYYCAAASGYDYWGQGTQVTVSS | high polyreactivity |
| QVQLVESGGGLVQAGGSLRLSCAASGFILKYYAMGWYRQAHGKERELVAAITVSGGSTYYADSVKGRFTISRDNAKNTFYLQMNSLKPEDTAVYYCNADYPRGGAGLLDYWGQGTQVTVSS | low polyreactivity |
| QVQLEESGGGLVQAGGSLRLSCAASGRIFTANAMGWYRQAPGKERELVASISYRSGRTRYADSVKGRFTISRDNAKNTVYLQMNSLKPEDTAVYYCATDRGRRYDYWGQGTQVTVSS | high polyreactivity |
| QVQLVESGGGLVQAGGSHRVSCAASGYIFLHYAMGWYRQATGKEREFVAAITYSGGNTYYADSVKGRFTISRDNAKNTVYLQMISLKPEDTAGYYCAKTRIYSKHWTEPYFYRVDSWGQGTQVTVSS | high polyreactivity |
| QVQLVESGGGLVQAGGSLRLSCAASGSIFDRYDMGWYRQAPGKERELVAAISTGGSTNYADSVKGRFTISRDNAKNTVYLHMNSLKPEDTAVYYCADRYLYRMYYWGQCTQVTVSS | low polyreactivity |
| QVQLVESGGGLVQAGGSHRLSCAASGSTFYYYAMGWYRQAPGKERELVAAISKSGGRTYYADSVKGRFTFSRDNAKNTVYLQMNSLKPEDTAVYYCNAVQYLNGYDYWGQGTQVTVSS | high polyreactivity |
| QVQLVESGGGLVQAGGSLRLSCAASGRTFASNAMGWYRQAPGKERELVAAISSAGGTNYADSVKGRFTISRDNAKNTVYLQMNSLKPEDTAVYYCAAASPYYSYHRYIYYYWGQGTQVTVSS | high polyreactivity |
| QVQLVESGGGKVQEGGSLRISCAASGSIFITYAMGWYRQAPGKERELVAAIRDSGDRTYYADSVKGRFTISRDNAKNTVYFQMNSLKPEDTAVYYCNARCQEPLKYDYWGQGTQVIVSS | low polyreactivity |
| QVQLVESGGGLVQAGGSLRLSCAASGSNISQNAMGWYRQAPGKERELVASITYSGGSTYYADSVKGRFTISRDNAKNTVYLQMNSLKPEVTAVYYCAADVRYSSRFYYWGQGTQVTVSS | high polyreactivity |
| QVQLVESGGGLVQAGGSLRLSCAASGRIFGYYTMGWYRQAPGKERELVAAITRDGGSTYYADSVKGRFTISRDNAKNTVYLQMNSLKPEDTAVDYCTAASQSRYYYWGQGTQVTVSS | high polyreactivity |

| Sequence | polyreactivity (PSR sort gate) |
| --- | --- |
| QVQLVESGGGLVQAGGSLRLSCAASGSTFDTNAMGWYRQAPGKERELVAAISASGGSTYYADSVKGRFTISRDNAKNTVYLQMNSLKPEDTAVYYCAATSGRAFKYDYWGQGTQVTVSS | high polyreactivity |
| QVQLVESGGGLVQAGGSLRLSCAASGSIFQYNAMGGSRQSPGEDRELVAAISRSGGSTYYADSVKGRFTNSRDNAKNTVYLQMNSLKPEDTAVYYCNAVLGYYSPYDYWVQGTQVTVSS | low polyreactivity |
| QVQLVESGGGLVQAGGSLRLSCAASGRTFNRNAMGWYRQAPGKERELVAAISWSGGRTYYADSVKGRFTISRDTAKNTVYLQMNSLKPEDTAVYYCAAPGKKYWGQGTQVTVSS | high polyreactivity |
| QVQHVESGGGLVQAGGSLRLSCAASGSTFAFNTMGWYRQSPGKEWELVAGISSNGGRTYYADSVNGRFTISRDNAKNTVYLQMNSLKPEDTAVYYCNRASVFHYRWYYYWGQGTQVTVSS | high polyreactivity |
| QGQLVESGGGLVQAGGSLRLSCAASGSIFGQYVMGWYRQAPGKERELVAAISGTGGSTYYADSVKGRFTISRDNAKNTVYLQMNSLKPEDTAVYYCAVVHRSSYRESGLLWRYYWGQGTQVTVSS | high polyreactivity |
| QVQLVESWGGLVQAGGSRRLSCDASGRTFVTNAMGWYRQARGKERELVAAISGTGGSTYYADSVKGRFTISRDNAKNTVFLHMNRLKPEDTAVYSWAADTYIYGLEYDYWGQGTQVTVSS | low polyreactivity |
| QVQLVESGGGLVQAGGSLRLSCAASGLTFTYYAMGWYRQAPGKERELVAAISSSGSDTYYADSVKGRFTISRDNAKNTVYLQMNSLKPEDTAVYYCAAVLTALSPDFEYEYWGQGTQVTVSS | low polyreactivity |
| QVQLVESGGGLVQAGGSLRLSCAASGFTIDGYAMGWYRQAPGKERELVAAIRRGGRTKYADSVKGRFTISRDNAKNTVYLQMNSLKPEDTAVYYCAADRSRRGHLTHGYWGQGTQVTVSS | high polyreactivity |
| QVQLVESGGGLVQAGGSLRLSCAASGRTFVLYAMGWYRQAPGKERELVASITSGGSTNYADSVKGRFTISRDNAKNTVYLQMNSLKPEDTAVYYCNADLDVYLWFIFTVYQDDYDYWGQGTQVTVSS | high polyreactivity |
| QVQPQESGGGLVQAGGSLRLSCAASGTIFAFQTMGWYRQAPGKERELVASITYGSSTNYADSVKGRFTISRDNAKNTVYLQMNSLKPEDTAVYYCAVPQAQYYYDYWGQGTQVTVSS | high polyreactivity |
| QVQLVESGGGLVQAGGSLRLSCAASGSTFFTNVMGWYRQAPGKERELVAVIRWRGSDTYYADSVKGRFTISRDNAKNTVYLQMNSLKPEDTAVYYSNAKESFYPTTGEQGYSYDYWGQGTQVTVSS | low polyreactivity |
| QVQLVESGGGLVQAGGSLRLSCAASGFTFDLYARGWYRQAPGKERELVAAISSSCGSTYYADSVKGRFTISRDNAKNTVYLQMNSLKPEDTAVYDCARRYLYSSRLVTKYGYGMDYWGQGTQVTVSS | high polyreactivity |
| QVQLVESGGGLVQAGGSLRLSCAACGSTFHWNTMVWYRQAPGKERELVAAITYSGGRTYYADSVKGRFTISRDNAKNTVYLQMNSLKPEDTAVYYCAARYWRGSVTSYYYWGQGTQVTVSS | high polyreactivity |
| QVQIVDSGGGLVQAGGRLRLTCAASGSTFYVYTMGWSRQAPGKESELFDRISSGGSTKYADSVKGRFTISRVNANNTVYLQMNILKPEDTAVYYCNADGLYLFGISYGKFLKYGHWGHGTQVTVSS | low polyreactivity |
| QVQLVESGGGLVQAGGSLRLSCAASGRTFYSYAMGWYRQAPGKERELVAAISRGGNTYYADSVKGRFTISRDNAKNTVYLQMNSLKPEDTAVYYCAVVRVTYYASIYHRGYDYWGQGTQVTVSS | low polyreactivity |
| QVQLVESGGGLVQAGGSLSLRCAASGRIFTVYAMVWYRPAPGKEMELVAAISKRDGSTSYADSVKGRFTISRDNAKNTVYLQMNSLKPEDTAVYYCNARNHVQVLFRRDYWGQGTQVTVSS | low polyreactivity |
| QVQLVESGGGLVQAGGSLRLICAASGNIFDLYAMGWYRQAPGKERELVAAITRSSSRTYYADSVKGRFTISRDNAKNTVSLQMNSLKPEDTAVYYCRAKQVNRVDYWGQGTQVTVSS | high polyreactivity |
| QVQLVESGRGLFQAGGSLRLSCAASGFTGSYAMGWYRQAPGKVREFVAAISYRGSSTYYADSVKGRFTISRDNAKNTVYLQMNSLKPEDTAVYYCNSVHYVLYGDYDYWGQGTQVTVSS | high polyreactivity |
| QVQLVESGAGLVQAGGSLRLSCAASGIIFASNAMGWYRQAPGKERELLATINWTDSSTYYADSVKGRFTISRDNAKNTVYLQMNSLKPEDTAVYYCNAVPHWFYRYGRYDYWGQGTQVTVSS | low polyreactivity |
| QVQHVESGGGLVQAGGSLRLSCAASGSIFIPNAMGWYRQAPGKERELVAAITSGGRTYYADSVKGRFTISRDNAKNTVYLQMNSLKPEDTAVYYCAARSGYRYVESEYWGQGTQVTVSS | high polyreactivity |
| QVQLVESGGVLVQAGGSLRLSCAASGRIFSAYAMGWYRPAPGKERDLVAAITSVGSTKYADYVKGRFTISRDNAKNTVYLQMNSLKPQDTAVYYCAAEYTRSFYIYYRFGYWGQGTQVTVSS | high polyreactivity |
